Experiment [1] concerns the target T1, CD3ε receptor on the surface of T cells (human, UniProt P07766 23-207).
T1 construct: whole, on cells; The target stood on primary T cells, where CD3ε is part of the TCR/CD3 complex; also called human CD3ε; CD3 epsilon chain
The experiment is described as follows: ratio of apparent KD values from the flow cytometry titration on T cells; reference is unmasked anti-CD3-1DD. On the procedure: (§1) The apparent affinity of the fusion proteins was determined using flow cytometry with T cells isolated from healthy donor blood.

Experiment [2] deals with T1, CD3ε receptor on the surface of T cells. As to the kind of experiment: dose-dependent titration by flow cytometry on T cells isolated from healthy donor blood; apparent KD. On the procedure: as §1
(In general: A flow cytometer gives signals particle by particle.)

T1 sequence (P07766 23-207): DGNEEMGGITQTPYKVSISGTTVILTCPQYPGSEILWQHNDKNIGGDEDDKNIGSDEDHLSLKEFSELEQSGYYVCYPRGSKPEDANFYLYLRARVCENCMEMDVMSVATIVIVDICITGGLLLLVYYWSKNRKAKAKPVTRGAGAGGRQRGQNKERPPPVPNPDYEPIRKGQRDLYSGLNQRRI

B1: hHINT1-anti-CD3-1DD fusion protein (VHH)
chain: MGHHHHHHMADEIAKAQVARPGGDTIFGKIIRKEIPAKIIFEDDRSLAFHDISPQAPTHFLVIPKKHISQISVAEDDDESLLGHLMIVGKKSAADLGLNKGYRMEVNEGSDGGQSVYHVHLHVLGGRQMHWPPGGGSGGGPLGVRGSGGELEVQLLEEVQLVESGGGLVQPGGSLRLSCAASGFTFDDYGMSWVRQAPGKWLEWVSDISWNGGSTYYADSVKGRFTISRDNAENTLYLQMNSLKPDDTAVYYCAKMGEGGWGANDYWGQGTQVTVSSGGGASGGGGSGGGGSGISLIAALAVDRVIGMENAMPWNLPADLAWFKRNTLNKPVIMGRHTWESIGRPLPGRKNIILSSQPGTDDRVTWVKSVDEAIAAAGDVPEIMVIGGGRVYEQFLPKAQKLYLTHIDAEVEGDTHFPDYEPDDWESVFSEFHDADAQNSHSYSFEILERRGGISLIAALAVDRVIGMENAMPWNLPADLAWFKRNTLNKPVIMGRHTWESIGRPLPGRKNIILSSQPGTDDRVTWVKSVDEAIAAAGDVPEIMVIGGGRVYEQFLPKAQKLYLTHIDAEVEGDTHFPDYEPDDWESVFSEFHDADAQNSHSYSFEILERRGGGLKDYKDDDDK
notes: Masked form; also called hHINT1-αCD3-1DD; HINT1-αCD3-1DD
For the molecule B1, in experiment [1], the “fold reduction of binding affinity against anti-CD3-1DD” value was roughly 40 fold. The Kd in experiment [2] is greater than 4000 nM.

B2: anti-CD3-1DD fusion protein (VHH)
chain: MGHHHHHHEVQLLEEVQLVESGGGLVQPGGSLRLSCAASGFTFDDYGMSWVRQAPGKWLEWVSDISWNGGSTYYADSVKGRFTISRDNAENTLYLQMNSLKPDDTAVYYCAKMGEGGWGANDYWGQGTQVTVSSGGGASGGGGSGGGGSGISLIAALAVDRVIGMENAMPWNLPADLAWFKRNTLNKPVIMGRHTWESIGRPLPGRKNIILSSQPGTDDRVTWVKSVDEAIAAAGDVPEIMVIGGGRVYEQFLPKAQKLYLTHIDAEVEGDTHFPDYEPDDWESVFSEFHDADAQNSHSYSFEILERRGGISLIAALAVDRVIGMENAMPWNLPADLAWFKRNTLNKPVIMGRHTWESIGRPLPGRKNIILSSQPGTDDRVTWVKSVDEAIAAAGDVPEIMVIGGGRVYEQFLPKAQKLYLTHIDAEVEGDTHFPDYEPDDWESVFSEFHDADAQNSHSYSFEILERRGGGLKDYKDDDDK
notes: Anti-CD3 nanobody fused to an E. coli DHFR dimer (1DD); also called αCD3-1DD; anti-CD3-DHFR2 fusion protein
Regarding B2, the Kd in experiment [2] amounted to 100 nM.

These data come from US20230406927A1 (REGENTS OF THE UNIVERSITY OF MINNESOTA, published 2023).
